In patent US20220259318A1 (Hoffmann-La Roche, published 2022):
Where “and” joins values, the source holds several entries; their conditions need not be identical. Equal values may be shown once.

How the values were obtained:
human GPRC5D [1] = target: T1, human GPRC5D (human, UniProt Q9NZD1 1-345); experiment: cell-based or functional assay
human GPRC5D [2] = target: T1, human GPRC5D; experiment: cell ELISA, CHO hu GPRC5D (EC/IC50 rel)
Description: Stable transfected CHO clones expressing either human GPRCSD or cynomolgus GPRCSD or murine GPRCSD or human GPRCSA were used to analyze the binding of potential lead candidate antibodies as IgGs. In detail, 10⁴ cells (viability≥98%) were seeded into 384 well-microtiter plates (BD Poly D-Lysin, #356662, volume: 25 μl/well) using fresh culture medium. After overnight incubation at 37° C., 25 μl/well dilutions of antibodies were added (15×1:3 dilutions in 1×PBS, assay conc. starts at 30 μg/ml) to the cells for 2 hours at 4° C. After one washing step using 90 μl/well PBST (10×PBS, Roche, #11666789001+0.1% Tween 20), cells were subsequently fixed by the addition of 50 μl/well 0.05% glutaraldehyde (Sigma Cat. No: G5882 in 1×PBS) for 10 min at room temperature (RT). After three additional washing steps using 90 μl/well PBST, secondary antibodies were added for detection: for human antibodies goat anti-human Ig a chain antibody HRP conjugate (Millipore #AP502P) diluted 1:2000 in blocking buffer (1×PBS (Roche #11666789001)+2% BSA (Bovine Serum Albumin Fraction V, fatty acid free, Roche, #10735086001)+0.05% Tween 20) was used (25 μl/well). […] After incubation for 1 h at RT and three additional washing steps using 90 μl/well PBST, 25 μl/well TMB substrate was added (Roche order no. 11835033001) for 10 min and color development to final ODs was determined by measurement at 370 nm/492 nm.
For the characterization of the humanization variants of the VH and VL domains of the GPRC5D binders the ELISA protocol as described above was used (see Example 7). The data are summarized in the table 10 for the humanization variants of 5E11 and in table 11 for the humanization variants of 5F11.

human GPRC5D [3] = target: T1, human GPRC5D; experiment: cell-based or functional assay; remark: listed apart in the source

T1 sequence (Q9NZD1 whole entry): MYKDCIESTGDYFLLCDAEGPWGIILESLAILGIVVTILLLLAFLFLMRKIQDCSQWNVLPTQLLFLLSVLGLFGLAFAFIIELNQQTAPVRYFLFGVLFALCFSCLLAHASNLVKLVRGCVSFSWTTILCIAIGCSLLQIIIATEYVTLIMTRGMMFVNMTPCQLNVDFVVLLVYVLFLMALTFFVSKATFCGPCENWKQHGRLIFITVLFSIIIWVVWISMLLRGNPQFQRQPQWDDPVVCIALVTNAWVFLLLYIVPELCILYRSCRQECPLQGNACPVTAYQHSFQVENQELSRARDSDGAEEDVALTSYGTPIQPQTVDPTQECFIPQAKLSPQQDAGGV

CAR-J2 EC50 [ng/mL] (PGLALA-CAR-J activation, L363 target cells) (human GPRC5D [1]) | EC50 (human GPRC5D [2]) | Binder | further results
4.6 | 0.0197 µg/mL and 0.13 nM | P1AE5722 (antibody, V domains shown, Humanized 5E11 IgG; PGLALA Fc implied by the CAR-J assay; also called 5E11_VH1c + 5E11_VL2a) VH: EVQLLESGGGLVQPGGSLRLSCAASGFTFSKYAMAWVRQAPGKGLEWVASISTGGVNTYYADSVKGRFTISRDNSKNTLYLQMNSLRAEDTAVYYCATHTGDYFDYWGQGTMVTVSS VL: EIVLTQSPGTLSLSPGERATLSCRASQSVSISGINLMNWYQQKPGQQPRLLIYHASILASGIPDRFSGSGSGTDFTLTISRLEPEDFAVYYCQQTRESPLTFGQGTRLEIK | 
25 | 0.0183 µg/mL and 0.12 nM | P1AE5721 (antibody, V domains shown, Humanized 5E11 IgG; PGLALA Fc implied by the CAR-J assay; also called 5E11_VH1c + 5E11_VL1c) VH: EVQLLESGGGLVQPGGSLRLSCAASGFTFSKYAMAWVRQAPGKGLEWVASISTGGVNTYYADSVKGRFTISRDNSKNTLYLQMNSLRAEDTAVYYCATHTGDYFDYWGQGTMVTVSS VL: DIVMTQSPDSLAVSLGERATINCKSSQSVSISGINLMNWYQQKPGQQPKLLIYHASILASGVPDRFSGSGSGTDFTLTISSLQAEDVAVYYCQQTRESPLTFGQGTRLEIK | 
6.3 | 0.0217 µg/mL and 0.14 nM | P1AE5720 (antibody, V domains shown, Humanized 5E11 IgG; PGLALA Fc implied by the CAR-J assay; also called 5E11_VH1c + 5E11_VL1a) VH: EVQLLESGGGLVQPGGSLRLSCAASGFTFSKYAMAWVRQAPGKGLEWVASISTGGVNTYYADSVKGRFTISRDNSKNTLYLQMNSLRAEDTAVYYCATHTGDYFDYWGQGTMVTVSS VL: DIVMTQSPDSLAVSLGERATINCRASQSVSISGINLMNWYQQKPGQQPKLLIYHASILASGVPDRFSGSGSGTDFTLTISSLQAEDVAVYYCQQTRESPLTFGQGTRLEIK | 
61.3 | 0.0104 µg/mL and 0.07 nM | P1AE5729 (antibody, V domains shown, Humanized 5E11 IgG; PGLALA Fc implied by the CAR-J assay; also called 5E11_VH1d + 5E11_VL2b) VH: ELQLLESGGGLVQPGGSLRLSCAASGFTFSKYAMAWVRQAPGKGLEWVASISTGGVNTYYADSVKGRFTISRDNAKNTLYLQMNSLRAEDTAVYYCATHTGDYFDYWGQGTMVTVSS VL: EIVLTQSPGTLSLSPGERATLSCRASQSVSISGINLMNWYQQKPGQQPKLLIYHASILASGIPDRFSGSGSGTDFTLTISRLEPEDFAVYYCQQTRESPLTFGQGTRLEIK | 
79.9 | 0.0139 µg/mL and 0.09 nM | P1AE5717 (antibody, V domains shown, Humanized 5E11 IgG; PGLALA Fc implied by the CAR-J assay; also called 5E11_VH1b + 5E11_VL2b) VH: ELQLLESGGGLVQPGGSLRLSCAASGFTFSKYAMAWVRQAPGKGLEWVASISTGGVNTYYRDSVKARFTISRDNAKNTLYLQMNSLRAEDTAVYYCATHTGDYFDYWGQGTMVTVSS VL: EIVLTQSPGTLSLSPGERATLSCRASQSVSISGINLMNWYQQKPGQQPKLLIYHASILASGIPDRFSGSGSGTDFTLTISRLEPEDFAVYYCQQTRESPLTFGQGTRLEIK | 

More lines, now with the values behind:

Binder | CAR-J2 EC50 [ng/mL] (PGLALA-CAR-J activation, L363 target cells) (human GPRC5D [1]) | EC50 (human GPRC5D [2]) | further results
P1AE5709 (antibody, V domains shown, Humanized 5E11 IgG; PGLALA Fc implied by the CAR-J assay; also called 5E11_VH1a + 5E11_VL2a) VH: EVQLLESGGGLVQPGGSLRLSCAASGFTFSKYAMAWVRQAPGKGLEWVASISTGGVNTYYRDSVKARFTISRDNSKNTLYLQMNSLRAEDTAVYYCATHTGDYFDYWGQGTMVTVSS VL: EIVLTQSPGTLSLSPGERATLSCRASQSVSISGINLMNWYQQKPGQQPRLLIYHASILASGIPDRFSGSGSGTDFTLTISRLEPEDFAVYYCQQTRESPLTFGQGTRLEIK | 59.4 | 0.0191 µg/mL and 0.13 nM | 
P1AE5707 (antibody, V domains shown, Humanized 5E11 IgG; PGLALA Fc implied by the CAR-J assay; also called 5E11_VH1a + 5E11_VL1a) VH: EVQLLESGGGLVQPGGSLRLSCAASGFTFSKYAMAWVRQAPGKGLEWVASISTGGVNTYYRDSVKARFTISRDNSKNTLYLQMNSLRAEDTAVYYCATHTGDYFDYWGQGTMVTVSS VL: DIVMTQSPDSLAVSLGERATINCRASQSVSISGINLMNWYQQKPGQQPKLLIYHASILASGVPDRFSGSGSGTDFTLTISSLQAEDVAVYYCQQTRESPLTFGQGTRLEIK | 42.4 | 0.0142 µg/mL and 0.09 nM | 
P1AE5708 (antibody, V domains shown, Humanized 5E11 IgG; PGLALA Fc implied by the CAR-J assay; also called 5E11_VH1a + 5E11_VL1c) VH: EVQLLESGGGLVQPGGSLRLSCAASGFTFSKYAMAWVRQAPGKGLEWVASISTGGVNTYYRDSVKARFTISRDNSKNTLYLQMNSLRAEDTAVYYCATHTGDYFDYWGQGTMVTVSS VL: DIVMTQSPDSLAVSLGERATINCKSSQSVSISGINLMNWYQQKPGQQPKLLIYHASILASGVPDRFSGSGSGTDFTLTISSLQAEDVAVYYCQQTRESPLTFGQGTRLEIK | 456 | 0.012 µg/mL and 0.08 nM | 
P1AE5715 (antibody, V domains shown, Humanized 5E11 IgG; PGLALA Fc implied by the CAR-J assay; also called 5E11_VH1b + 5E11_VL1c) VH: ELQLLESGGGLVQPGGSLRLSCAASGFTFSKYAMAWVRQAPGKGLEWVASISTGGVNTYYRDSVKARFTISRDNAKNTLYLQMNSLRAEDTAVYYCATHTGDYFDYWGQGTMVTVSS VL: DIVMTQSPDSLAVSLGERATINCKSSQSVSISGINLMNWYQQKPGQQPKLLIYHASILASGVPDRFSGSGSGTDFTLTISSLQAEDVAVYYCQQTRESPLTFGQGTRLEIK | 3.6 | 0.0211 µg/mL and 0.14 nM | 
P1AE5713 (antibody, V domains shown, Humanized 5E11 IgG; PGLALA Fc implied by the CAR-J assay; also called 5E11_VH1a + 5E11_VL3b) VH: EVQLLESGGGLVQPGGSLRLSCAASGFTFSKYAMAWVRQAPGKGLEWVASISTGGVNTYYRDSVKARFTISRDNSKNTLYLQMNSLRAEDTAVYYCATHTGDYFDYWGQGTMVTVSS VL: DIQMTQSPSSLSASVGDRVTITCRASQSVSISGINLMNWYQQKPGQQPKLLIYHASILASGVPSRFSGSGSGTDFTLTISSLQPEDFATYYCQQTRESPLTFGQGTRLEIK | 76.9 | 0.0165 µg/mL and 0.11 nM | 
P1AE5710 (antibody, V domains shown, Humanized 5E11 IgG; PGLALA Fc implied by the CAR-J assay; also called 5E11_VH1a + 5E11_VL2b) VH: EVQLLESGGGLVQPGGSLRLSCAASGFTFSKYAMAWVRQAPGKGLEWVASISTGGVNTYYRDSVKARFTISRDNSKNTLYLQMNSLRAEDTAVYYCATHTGDYFDYWGQGTMVTVSS VL: EIVLTQSPGTLSLSPGERATLSCRASQSVSISGINLMNWYQQKPGQQPKLLIYHASILASGIPDRFSGSGSGTDFTLTISRLEPEDFAVYYCQQTRESPLTFGQGTRLEIK | 3.5 | 0.0101 µg/mL and 0.07 nM | 
P1AE5716 (antibody, V domains shown, Humanized 5E11 IgG; PGLALA Fc implied by the CAR-J assay; also called 5E11_VH1b + 5E11_VL2a) VH: ELQLLESGGGLVQPGGSLRLSCAASGFTFSKYAMAWVRQAPGKGLEWVASISTGGVNTYYRDSVKARFTISRDNAKNTLYLQMNSLRAEDTAVYYCATHTGDYFDYWGQGTMVTVSS VL: EIVLTQSPGTLSLSPGERATLSCRASQSVSISGINLMNWYQQKPGQQPRLLIYHASILASGIPDRFSGSGSGTDFTLTISRLEPEDFAVYYCQQTRESPLTFGQGTRLEIK | 3.3 | 0.0151 µg/mL and 0.1 nM | 
P1AE5714 (antibody, V domains shown, Humanized 5E11 IgG; PGLALA Fc implied by the CAR-J assay; also called 5E11_VH1b + 5E11_VL1a) VH: ELQLLESGGGLVQPGGSLRLSCAASGFTFSKYAMAWVRQAPGKGLEWVASISTGGVNTYYRDSVKARFTISRDNAKNTLYLQMNSLRAEDTAVYYCATHTGDYFDYWGQGTMVTVSS VL: DIVMTQSPDSLAVSLGERATINCRASQSVSISGINLMNWYQQKPGQQPKLLIYHASILASGVPDRFSGSGSGTDFTLTISSLQAEDVAVYYCQQTRESPLTFGQGTRLEIK | 5.5 | 0.0129 µg/mL and 0.09 nM | 
10B10-TCB (bispecific antibody, human IgG1, kappa, L234A L235A) light 1: DIQLTQSPHSLSASLGETVSIECLASEGISNYLAWFHQKPGKSPQLLIYYASSLQDGVPSRFSGSGSGTQYSLKISNMQPEDEGVYYCQQGYKYPLTFGSGTKLEIKRTVAAPSVFIFPPSDRKLKSGTASVVCLLNNFYPREAKVQWKVDNALQSGNSQESVTEQDSKDSTYSLSSTLTLSKADYEKHKVYACEVTHQGLSSPVTKSFNRGEC light 2: EVQLLESGGGLVQPGGSLRLSCAASGFTFSTYAMNWVRQAPGKGLEWVSRIRSKYNNYATYYADSVKGRFTISRDDSKNTLYLQMNSLRAEDTAVYYCVRHGNFGNSYVSWFAYWGQGTLVTVSSASVAAPSVFIFPPSDEQLKSGTASVVCLLNNFYPREAKVQWKVDNALQSGNSQESVTEQDSKDSTYSLSSTLTLSKADYEKHKVYACEVTHQGLSSPVTKSFNRGEC heavy 1: EVQLVESGGGLVQPGRSMKLSCAASGFTFTNFYMAWVRQAPTKALEWVASINTGGGYTYYRDSVKGRFTVSRDNTRSTLYLQMDSLRSEETATYYCARHLTYYGRYYYFDYWGQGVMVTVSSASTKGPSVFPLAPSSKSTSGGTAALGCLVEDYFPEPVTVSWNSGALTSGVHTFPAVLQSSGLYSLSSVVTVPSSSLGTQTYICNVNHKPSNTKVDEKVEPKSCDKTHTCPPCPAPEAAGGPSVFLFPPKPKDTLMISRTPEVTCVVVDVSHEDPEVKFNWYVDGVEVHNAKTKPREEQYNSTYRVVSVLTVLHQDWLNGKEYKCKVSNKALGAPIEKTISKAKGQPREPQVCTLPPSRDELTKNQVSLSCAVKGFYPSDIAVEWESNGQPENNYKTTPPVLDSDGSFFLVSKLTVDKSRWQQGNVFSCSVMHEALHNHYTQKSLSLSPGK heavy 2: not shown |  |  | EC50 in vitro killing assay, AMO-1 (human GPRC5D [3]): 0.084 nM; EC50 in vitro killing assay, EJM (human GPRC5D [3]): 0.079 nM; EC50 in vitro killing assay, L363 (human GPRC5D [3]): 0.034 nM; EC50 in vitro killing assay, MOLP-2 (human GPRC5D [3]): 0.16 nM; EC50 in vitro killing assay, NCI-H929 (human GPRC5D [3]): 0.056 nM; EC50 in vitro killing assay, OPM-2 (human GPRC5D [3]): 0.028 nM; EC50 in vitro killing assay, RPMI (human GPRC5D [3]): 0.965 nM
